Reference: article PMC314469, “Protein Interaction Networks by Proteome Peptide Scanning” (PLoS Biology, 2004)
One block for each binder: values may come before it.

Molecular target: T1, Abp1 SH3 (ABP1_YEAST), P15891
T1 chain: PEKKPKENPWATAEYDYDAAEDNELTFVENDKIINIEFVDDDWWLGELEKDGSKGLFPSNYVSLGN
Experiment: SPOT array

B2: YGL048C 295-307 (peptide)
chain: NRLDILDPALLRP
- normalised SPOT signal, Boehringer light units (BLU); mean over the file's lines of this peptide: 101

B3: YKR011C 56-68 (peptide)
chain: NLKIDSAPAYLKP
- normalised SPOT signal, Boehringer light units (BLU); mean over the file's lines of this peptide: 112

B6: YAL040C 532-545 (peptide)
chain: NLSVRSKRLFPVRP
- normalised SPOT signal, Boehringer light units (BLU); mean over the file's lines of this peptide: 326

B7: YDR479C 205-217 (peptide)
chain: NQTPAQGPPLRRP
- normalised SPOT signal, Boehringer light units (BLU); mean over the file's lines of this peptide: 8650

B9: YCL014W 1345-1357 (peptide)
chain: NNPSNSIPKIEKP
- normalised SPOT signal, Boehringer light units (BLU); mean over the file's lines of this peptide: 108

B11: YJL087C 616-628 (peptide)
chain: NNNQQKTPKLIKP
- normalised SPOT signal, Boehringer light units (BLU); mean over the file's lines of this peptide: 48.3

B12: YDR394W 319-331 (peptide)
chain: NRADTLDPALLRP
- normalised SPOT signal, Boehringer light units (BLU); mean over the file's lines of this peptide: 87.6

B15: YDR527W 27-39 (peptide)
chain: NNSGTGFPELYKP
- normalised SPOT signal, Boehringer light units (BLU); mean over the file's lines of this peptide: 24.7

B16: YBR015C 261-274 (peptide)
chain: NLLLLDADNFPIKP
- normalised SPOT signal, Boehringer light units (BLU); mean over the file's lines of this peptide: 169

B18: YAL042W 215-228 (peptide)
chain: NRIQGNLHFAPGKP
- normalised SPOT signal, Boehringer light units (BLU); mean over the file's lines of this peptide: 253

B20: YJR140C 1438-1450 (peptide)
chain: NLVNIWKPDFERP
- normalised SPOT signal, Boehringer light units (BLU); mean over the file's lines of this peptide: 130

B21: YFL049W 597-609 (peptide)
chain: NPVVATDPVAAKP
- normalised SPOT signal, Boehringer light units (BLU); mean over the file's lines of this peptide: 79

Continued, values first:

- normalised SPOT signal, Boehringer light units (BLU); mean over the file's lines of this peptide: 45.9
B1: YPL070W 456-468 (peptide)
chain: NLGDIVTPTIQRP

- normalised SPOT signal, Boehringer light units (BLU); mean over the file's lines of this peptide: 1040
B4: YOR188W 1010-1022 (peptide)
chain: NNPPQMVPKGVRP

- normalised SPOT signal, Boehringer light units (BLU); mean over the file's lines of this peptide: 8720
B5: YOL148C 556-568 (peptide)
chain: NNNNLDKPKVKRP

- normalised SPOT signal, Boehringer light units (BLU); mean over the file's lines of this peptide: 169
B8: YPL075W 339-351 (peptide)
chain: NLVQSIDPNHSKP

- normalised SPOT signal, Boehringer light units (BLU); mean over the file's lines of this peptide: 342
B10: YNL034W 381-393 (peptide)
chain: NPSNKSIPFWKRP

- normalised SPOT signal, Boehringer light units (BLU); mean over the file's lines of this peptide: 66.1
B13: YNL106C 1166-1179 (peptide)
chain: NPELEKLSVHPLKP

- normalised SPOT signal, Boehringer light units (BLU); mean over the file's lines of this peptide: 150
B14: YML020W 157-170 (peptide)
chain: NPAPLTNTYIPYKP

- normalised SPOT signal, Boehringer light units (BLU); mean over the file's lines of this peptide: 140
B17: YMR067C 315-328 (peptide)
chain: NMPFTLNQSHPFKP

- normalised SPOT signal, Boehringer light units (BLU); mean over the file's lines of this peptide: 66.7
B19: YLR201C 20-32 (peptide)
chain: NPIEHVKPIHIKP

- normalised SPOT signal, Boehringer light units (BLU); mean over the file's lines of this peptide: 610
B22: YPR171W 329-342 (peptide)
chain: NLTTTSKPSLPEKP

- normalised SPOT signal, Boehringer light units (BLU); mean over the file's lines of this peptide: 235
B23: YMR020W 267-280 (peptide)
chain: NLRGRIEFQPPLKP
